Tests used:
[1] = molecular target: Activin A (homodimer of two inhibin βA subunits; R&D Systems, #338-AC) (human) (UniProt P08476); experiment: SPR blocking: 5 nM Activin A + 0.94 nM binder over hActRIIB-hFc (Control 4) surface
[2] = molecular target: Activin A (homodimer of two inhibin βA subunits; R&D Systems, #338-AC) (human) (UniProt P08476); experiment: SPR blocking: 5 nM Activin A + 3.75 nM binder over hActRIIA-hFc surface
[3] = molecular target: Activin A (homodimer of two inhibin βA subunits; R&D Systems, #338-AC) (human) (UniProt P08476); experiment: SPR blocking: 5 nM Activin A + 3.75 nM binder over Follistatin-288 surface
[4] = molecular target: Activin A (homodimer of two inhibin βA subunits; R&D Systems, #338-AC) (human) (UniProt P08476); experiment: SPR blocking: 5 nM Activin A + 7.50 nM binder over hActRIIB-hFc (Control 4) surface
[5] = molecular target: Activin A (homodimer of two inhibin βA subunits; R&D Systems, #338-AC) (human) (UniProt P08476); experiment: SPR blocking: 5 nM Activin A + 0.00 nM binder over hActRIIB-hFc (Control 4) surface
[6] = molecular target: Activin A (homodimer of two inhibin βA subunits; R&D Systems, #338-AC) (human) (UniProt P08476); experiment: SPR blocking: 5 nM Activin A + 1.88 nM binder over hActRIIA-hFc surface
[7] = molecular target: Activin A (homodimer of two inhibin βA subunits; R&D Systems, #338-AC) (human) (UniProt P08476); experiment: SPR blocking: 5 nM Activin A + 15 nM binder over Follistatin-288 surface
[8] = molecular target: Activin A (homodimer of two inhibin βA subunits; R&D Systems, #338-AC) (human) (UniProt P08476); experiment: SPR blocking: 5 nM Activin A + 0 nM binder over Follistatin-288 surface
[9] = molecular target: Activin A (homodimer of two inhibin βA subunits; R&D Systems, #338-AC) (human) (UniProt P08476); experiment: SPR blocking: 5 nM Activin A + 0.00 nM binder over hActRIIA-hFc surface
[10] = molecular target: Activin A (homodimer of two inhibin βA subunits; R&D Systems, #338-AC) (human) (UniProt P08476); experiment: SPR blocking: 5 nM Activin A + 0.94 nM binder over Follistatin-288 surface
[11] = molecular target: Activin A (homodimer of two inhibin βA subunits; R&D Systems, #338-AC) (human) (UniProt P08476); experiment: SPR blocking: 5 nM Activin A + 30 nM binder over hActRIIA-hFc surface
[12] = molecular target: Activin A (homodimer of two inhibin βA subunits; R&D Systems, #338-AC) (human) (UniProt P08476); experiment: SPR blocking: 5 nM Activin A + 7.50 nM binder over hActRIIA-hFc surface
[13] = molecular target: Activin A (homodimer of two inhibin βA subunits; R&D Systems, #338-AC) (human) (UniProt P08476); experiment: SPR blocking: 5 nM Activin A + 0.94 nM binder over hActRIIA-hFc surface
[14] = molecular target: Activin A (homodimer of two inhibin βA subunits; R&D Systems, #338-AC) (human) (UniProt P08476); experiment: SPR blocking: 5 nM Activin A + 60 nM binder over hActRIIA-hFc surface
[15] = molecular target: Activin A (homodimer of two inhibin βA subunits; R&D Systems, #338-AC) (human) (UniProt P08476); experiment: SPR blocking: 5 nM Activin A + 15 nM binder over hActRIIB-hFc (Control 4) surface
[16] = molecular target: Activin A (homodimer of two inhibin βA subunits; R&D Systems, #338-AC) (human) (UniProt P08476); experiment: SPR blocking: 5 nM Activin A + 15 nM binder over hActRIIA-hFc surface
[17] = molecular target: Activin A (homodimer of two inhibin βA subunits; R&D Systems, #338-AC) (human) (UniProt P08476); experiment: SPR blocking: 5 nM Activin A + 3.75 nM binder over hActRIIB-hFc (Control 4) surface
[18] = molecular target: Activin A (homodimer of two inhibin βA subunits; R&D Systems, #338-AC) (human) (UniProt P08476); experiment: SPR blocking: 5 nM Activin A + 60 nM binder over Follistatin-288 surface
[19] = molecular target: Activin A (homodimer of two inhibin βA subunits; R&D Systems, #338-AC) (human) (UniProt P08476); experiment: SPR blocking: 5 nM Activin A + 7.5 nM binder over Follistatin-288 surface
[20] = molecular target: Activin A (homodimer of two inhibin βA subunits; R&D Systems, #338-AC) (human) (UniProt P08476); experiment: SPR blocking: 5 nM Activin A + 60 nM binder over hActRIIB-hFc (Control 4) surface
[21] = molecular target: Activin A (homodimer of two inhibin βA subunits; R&D Systems, #338-AC) (human) (UniProt P08476); experiment: SPR blocking: 5 nM Activin A + 1.88 nM binder over Follistatin-288 surface
[22] = molecular target: Activin A (homodimer of two inhibin βA subunits; R&D Systems, #338-AC) (human) (UniProt P08476); experiment: SPR blocking: 5 nM Activin A + 30 nM binder over hActRIIB-hFc (Control 4) surface
[23] = molecular target: Activin A (homodimer of two inhibin βA subunits; R&D Systems, #338-AC) (human) (UniProt P08476); experiment: SPR blocking: 5 nM Activin A + 30 nM binder over Follistatin-288 surface
[24] = molecular target: Activin A (homodimer of two inhibin βA subunits; R&D Systems, #338-AC) (human) (UniProt P08476); experiment: SPR blocking: 5 nM Activin A + 1.88 nM binder over hActRIIB-hFc (Control 4) surface
Activin A (human) [25] = molecular target: Activin A (human) (UniProt P08476); experiment: Octet cross-competition; binder on sensor tip; 50 nM hActivin A pre-bound with 1 uM H4H10423P (col 4); dark grey box
Activin A (human) [26] = molecular target: Activin A (human) (UniProt P08476); experiment: Octet cross-competition; binder on sensor tip; 50 nM hActivin A pre-bound with 1 uM H4H10432P2 (col 7); dark grey box
Activin A (human) [27] = molecular target: Activin A (human) (UniProt P08476); experiment: Octet cross-competition; binder on sensor tip; 50 nM hActivin A mixed with 1 uM Isotype control 12 (-) (col 12); light grey box (self)
Activin A (human) [28] = molecular target: Activin A (human) (UniProt P08476); experiment: Octet cross-competition; binder on sensor tip; 50 nM hActivin A pre-bound with 1 uM H4H10429P (col 6); dark grey box
Activin A (human) [29] = molecular target: Activin A (human) (UniProt P08476); experiment: Octet cross-competition; binder on sensor tip; 50 nM hActivin A pre-bound with 1 uM Control 3 (col 11); dark grey box
Activin A (human) [30] = molecular target: Activin A (human) (UniProt P08476); experiment: Octet cross-competition; binder on sensor tip; 50 nM hActivin A mixed with 1 uM Isotype control 13 (-) (col 13); light grey box (self)
Activin A (human) [31] = molecular target: Activin A (human) (UniProt P08476); experiment: Octet cross-competition; binder on sensor tip; 50 nM hActivin A pre-bound with 1 uM H4H10446P2 (col 1); dark grey box
Activin A (human) [32] = molecular target: Activin A (human) (UniProt P08476); experiment: Octet cross-competition; binder on sensor tip; 50 nM hActivin A pre-bound with 1 uM Control 1 (col 10); dark grey box
hBMP2 (human) = hBMP2 (human) (UniProt P12643); experiment: SPR (Biacore 4000), captured on anti-human Fc, 200 nM ligand injected, 37 C
hBMP9 (human) = hBMP9 (human) (UniProt Q9UK05); experiment: as above
Activin AB (human) = Activin AB (human) (UniProt P08476); experiment: as above
GDF8 (human) = GDF8 (human) (UniProt O14793); experiment: as above
Activin B (human) = Activin B (human) (UniProt P09529); experiment: as above
hBMP7 (human) = hBMP7 (human) (UniProt P18075); experiment: as above
GDF11 (human) = GDF11 (human) (UniProt O95390); experiment: as above
hBMP4 (human) = hBMP4 (human) (UniProt P12644); experiment: as above
Activin AC (human) = Activin AC (human) (UniProt P55103); experiment: as above
Activin A (human) [33] = molecular target: Activin A (human) (UniProt P08476); experiment: as above
hBMP10 (human) = hBMP10 (human) (UniProt O95393); experiment: as above
hBMP6 (human) = hBMP6 (human) (UniProt P22004); experiment: as above
Chain of hBMP6 (human) (P22004 382-513 limits assumed): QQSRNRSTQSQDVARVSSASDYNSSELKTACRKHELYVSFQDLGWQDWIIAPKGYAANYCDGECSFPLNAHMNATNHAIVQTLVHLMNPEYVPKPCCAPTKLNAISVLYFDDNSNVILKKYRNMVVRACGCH

Chain of Activin A (homodimer of two inhibin βA subunits; R&D Systems, #338-AC) (human) (P08476 311-426 limits assumed): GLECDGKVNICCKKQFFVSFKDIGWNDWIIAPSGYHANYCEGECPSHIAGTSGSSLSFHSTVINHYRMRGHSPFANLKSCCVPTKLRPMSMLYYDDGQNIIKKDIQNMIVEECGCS
Chain of Activin A (human) (P08476 311-426 limits assumed): as above
Chain of hBMP7 (human) (P18075 293-431 limits assumed): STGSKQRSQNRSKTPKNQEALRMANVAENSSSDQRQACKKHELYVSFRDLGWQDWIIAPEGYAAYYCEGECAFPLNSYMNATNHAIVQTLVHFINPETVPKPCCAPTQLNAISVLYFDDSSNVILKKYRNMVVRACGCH
Chain of GDF11 (human) (O95390 299-407 limits assumed): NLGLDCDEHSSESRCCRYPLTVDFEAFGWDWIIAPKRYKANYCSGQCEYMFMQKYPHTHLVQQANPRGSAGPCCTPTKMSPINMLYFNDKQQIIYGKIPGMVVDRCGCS
Chain of hBMP10 (human) (O95393 317-424 limits assumed): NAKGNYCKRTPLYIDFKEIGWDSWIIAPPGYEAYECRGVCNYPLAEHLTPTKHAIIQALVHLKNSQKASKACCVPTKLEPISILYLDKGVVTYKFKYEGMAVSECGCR
Chain of hBMP2 (human) (P12643 283-396 limits assumed): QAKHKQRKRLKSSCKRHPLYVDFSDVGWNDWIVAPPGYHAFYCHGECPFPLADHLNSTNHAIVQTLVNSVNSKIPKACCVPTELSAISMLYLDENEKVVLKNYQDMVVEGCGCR
Chain of Activin AB (human) (P08476 311-426 limits assumed, chain 1 of 2): as the sequence (P08476 311-426 limits assumed) above
Chain of Activin AB (human) (chain, as listed by the source limits assumed, chain 2 of 2): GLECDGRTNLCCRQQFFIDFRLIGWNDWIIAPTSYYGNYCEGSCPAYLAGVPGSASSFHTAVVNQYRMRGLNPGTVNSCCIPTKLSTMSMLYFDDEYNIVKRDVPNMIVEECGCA
Chain of Activin AC (human) (chain, as listed by the source, chain 1 of 2): as the sequence (P08476 311-426 limits assumed) above
Chain of Activin AC (human) (P55103 237-352, chain 2 of 2): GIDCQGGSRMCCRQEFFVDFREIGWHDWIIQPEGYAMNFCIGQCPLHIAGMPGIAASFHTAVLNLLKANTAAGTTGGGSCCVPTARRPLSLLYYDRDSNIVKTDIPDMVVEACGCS
Chain of hBMP4 (human) (P12644 293-408 limits assumed): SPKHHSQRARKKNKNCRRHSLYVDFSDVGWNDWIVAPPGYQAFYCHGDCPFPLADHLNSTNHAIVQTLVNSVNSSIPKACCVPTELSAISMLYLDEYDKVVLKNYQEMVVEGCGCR
Chain of Activin B (human) (P09529 293-407 G326S limits assumed): as the sequence (chain, as listed by the source limits assumed, chain 2 of 2) above
Chain of hBMP9 (human) (Q9UK05 320-429 limits assumed): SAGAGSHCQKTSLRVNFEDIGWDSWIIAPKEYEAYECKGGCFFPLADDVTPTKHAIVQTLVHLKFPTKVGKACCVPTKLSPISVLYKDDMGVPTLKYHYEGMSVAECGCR

| % bound RU w/no inhibitor [1] [%] | % bound RU w/no inhibitor [2] [%] | % bound RU w/no inhibitor [3] [%] | % bound RU w/no inhibitor [4] [%] | % bound RU w/no inhibitor [5] [%] | % bound RU w/no inhibitor [6] [%] | % bound RU w/no inhibitor [7] [%] | % bound RU w/no inhibitor [8] [%] | % bound RU w/no inhibitor [9] [%] | % bound RU w/no inhibitor [10] [%] | % bound RU w/no inhibitor [11] [%] | % bound RU w/no inhibitor [12] [%] | % bound RU w/no inhibitor [13] [%] | % bound RU w/no inhibitor [14] [%] | % bound RU w/no inhibitor [15] [%] | % bound RU w/no inhibitor [16] [%] | % bound RU w/no inhibitor [17] [%] | % bound RU w/no inhibitor [18] [%] | % bound RU w/no inhibitor [19] [%] | % bound RU w/no inhibitor [20] [%] | other results | Substance |
| --- | --- | --- | --- | --- | --- | --- | --- | --- | --- | --- | --- | --- | --- | --- | --- | --- | --- | --- | --- | --- | --- |
| 135 | 139 | 145 | 33 | 100 | 190 | 5 | 100 | 100 | 172 | 1 | 32 | 207 | 0 | 2 | 1 | 120 | 9 | 33 | 2 | % bound RU w/no inhibitor [21]: 170%; % bound RU w/no inhibitor [22]: 1%; % bound RU w/no inhibitor [23]: 7%; % bound RU w/no inhibitor [24]: 133% | Control 3 (murine anti-Activin A monoclonal antibody from R&D Systems, catalog number MAB3381) |
| 105 | 110 | 97 | 107 | 100 | 112 | 102 | 100 | 100 | 100 | 118 | 115 | 109 | 119 | 110 | 116 | 104 | 103 | 102 | 115 | % bound RU w/no inhibitor [21]: 102%; % bound RU w/no inhibitor [22]: 111%; % bound RU w/no inhibitor [23]: 104%; % bound RU w/no inhibitor [24]: 105% | isotype control antibody (Example 8) |
| – | – | – | – | – | – | – | – | – | – | – | – | – | – | – | – | – | – | – | – | binding response (Activin A (human) [25]): 0.18; binding response (Activin A (human) [26]): 0.14; binding response (Activin A (human) [27]): 0.15; binding response (Activin A (human) [28]): 0.22; binding response (Activin A (human) [29]): 0.2; binding response (Activin A (human) [30]): 0.24; binding response (Activin A (human) [31]): 0.22; binding response (Activin A (human) [32]): 0.26 | isotype control antibodies (antibody) |
| – | – | – | – | – | – | – | – | – | – | – | – | – | – | – | – | – | – | – | – | binding response (resonance units) for 200 nM ligand (hBMP2 (human)): -1 RU; binding response (resonance units) for 200 nM ligand (hBMP9 (human)): -1 RU; binding response (resonance units) for 200 nM ligand (Activin AB (human)): -0.1 RU; binding response (resonance units) for 200 nM ligand (GDF8 (human)): 0.5 RU; binding response (resonance units) for 200 nM ligand (Activin B (human)): 1.9 RU; binding response (resonance units) for 200 nM ligand (hBMP7 (human)): 4.3 RU; binding response (resonance units) for 200 nM ligand (GDF11 (human)): 3 RU; binding response (resonance units) for 200 nM ligand (hBMP4 (human)): 0.4 RU; binding response (resonance units) for 200 nM ligand (Activin AC (human)): -0.1 RU; binding response (resonance units) for 200 nM ligand (Activin A (human) [33]): -0.1 RU; binding response (resonance units) for 200 nM ligand (hBMP10 (human)): 0.3 RU; binding response (resonance units) for 200 nM ligand (hBMP6 (human)): 5.1 RU | Isotype Control mAb (antibody) |

Source: patent publication US20150037339A1
